Measured values as given in patent US20180086823A1 (FRAUNHOFER GESELLSCHAFT ZUR FOERDERUNG DER ANGEWANDTEN …, published 2018).
Where two headings read alike, the source gives them in different places.

Experiments:
[1] = target: T1, AMA-1 of Plasmodium falciparum strain 3D7, on parasites (schizonts/merozoites) (Plasmodium falciparum (strain 3D7), UniProt P22621 25-622); test: cell-based or functional assay
T1 chain: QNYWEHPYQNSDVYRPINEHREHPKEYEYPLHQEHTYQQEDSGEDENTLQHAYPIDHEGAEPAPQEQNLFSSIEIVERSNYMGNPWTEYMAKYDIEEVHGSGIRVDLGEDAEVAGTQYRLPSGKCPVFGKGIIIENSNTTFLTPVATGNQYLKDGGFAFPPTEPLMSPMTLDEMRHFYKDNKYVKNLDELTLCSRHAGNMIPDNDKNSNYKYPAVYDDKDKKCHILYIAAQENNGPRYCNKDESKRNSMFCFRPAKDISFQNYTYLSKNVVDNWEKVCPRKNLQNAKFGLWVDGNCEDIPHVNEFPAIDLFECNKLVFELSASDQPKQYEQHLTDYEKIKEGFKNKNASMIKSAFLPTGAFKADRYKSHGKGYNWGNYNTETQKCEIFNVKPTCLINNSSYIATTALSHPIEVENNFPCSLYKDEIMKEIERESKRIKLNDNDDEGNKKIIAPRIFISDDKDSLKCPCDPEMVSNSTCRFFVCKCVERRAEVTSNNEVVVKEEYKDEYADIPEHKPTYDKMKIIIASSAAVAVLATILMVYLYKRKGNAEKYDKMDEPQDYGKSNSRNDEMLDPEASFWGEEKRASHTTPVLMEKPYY

[2] = target: T2, recombinant apical membrane antigen 1 (AMA-1) from Plasmodium falciparum 3D7, produced in Pichia pastoris, … (Plasmodium falciparum (strain 3D7), UniProt P22621 25-546); test: SPR, Biacore T200, protein-A capture of the antibody, 25° C., 1:1 Langmuir fit
T2 construct: also called native target antigen AMA-1; recombinant AMA-1
T2 chain: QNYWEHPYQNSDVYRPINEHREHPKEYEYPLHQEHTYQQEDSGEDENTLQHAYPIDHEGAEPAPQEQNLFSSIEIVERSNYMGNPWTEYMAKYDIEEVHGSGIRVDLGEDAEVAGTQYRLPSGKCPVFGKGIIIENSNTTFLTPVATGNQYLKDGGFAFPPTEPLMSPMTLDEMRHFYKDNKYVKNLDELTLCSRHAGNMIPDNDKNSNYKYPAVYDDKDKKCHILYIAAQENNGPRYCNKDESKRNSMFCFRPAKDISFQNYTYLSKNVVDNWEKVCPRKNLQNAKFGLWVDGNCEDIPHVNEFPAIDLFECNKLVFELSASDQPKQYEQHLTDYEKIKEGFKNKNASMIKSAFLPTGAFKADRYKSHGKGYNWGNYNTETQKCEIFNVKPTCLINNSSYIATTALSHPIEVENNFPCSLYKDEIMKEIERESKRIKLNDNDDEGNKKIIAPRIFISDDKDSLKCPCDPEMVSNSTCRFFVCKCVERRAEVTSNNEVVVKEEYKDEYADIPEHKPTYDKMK
Protocol: All antibodies were diluted into running buffer to yield equivalent capture levels. The injection time was set to 180 s and dissociation was recorded for 600 s. The protein-A surface was regenerated by a 30 s pulse with 30 mM HCI. For the antibody buffer injections were used for double referencing. Values for the KD of the antibody were calculated according to the curve-fitting methodology for a simple binding model (1:1 Langmuir).

[3] = target: AMA-1 of Plasmodium falciparum strain FCR3, on parasites (Plasmodium falciparum (strain FCR3)); test: cell-based or functional assay
[4] = target: T1, AMA-1 of Plasmodium falciparum strain …; test: cell-based or functional assay
[5] = target: AMA-1 of Plasmodium falciparum strain HB3, on parasites (Plasmodium falciparum (strain HB3)); test: cell-based or functional assay
[6] = target: AMA-1 of Plasmodium falciparum strain K1, on parasites (Plasmodium falciparum (strain K1)); test: cell-based or functional assay

B1: huMAb-anti-AMA-1.1 (antibody, V domains shown)
VH: QVQLQESGPGLVKPSETLSLTCSVSGVSVSSTVFYWGWIRQSPGKGLEWIGSIYYSGSTYYNEALKSRLTLSVETSERQFSLRLSSVTAADTAVYYCARGAINFGGYSGPGTFYFDIWGQGTLITVSS
VL: DIQMTQSPSTLSASVGDRVTITCRASQSITTWLAWYQQKPGTAPKLLIYKASILETGVPSRFSGSGSGTDFTLTISSLQPDDFATYYCQQYSTHLFTFGPGTKVDIK
notes: also called recombinant human anti AMA-1 antibody
- IC50 [µg/ml], growth inhibition assay (GIA), strain 3D7 [1]: 32 µg/mL
- Kd [2]: 0.188 nM
- koff [2]: 0.000131 s⁻¹
- kon [2]: 698000 M⁻¹ s⁻¹
- IC50 [µg/ml], growth inhibition assay (GIA), strain FCR3 [3]: 230 µg/mL
- IC50 [µg/ml], growth inhibition assay (GIA), strain 3D7 [4]: 32 µg/mL
- IC50 [µg/ml], growth inhibition assay (GIA), strain HB3 [5]: 115 µg/mL
- IC50 [µg/ml], growth inhibition assay (GIA), strain K1 [6]: 113 µg/mL
